This is an account of results in patent publication US20220175781A1, “CD40L COMPOSITIONS AND METHODS FOR TUNABLE REGULATION” (Obsidian Therapeutics, Inc., priority 2019, published 2022).

For assay [1], the system named is HEK293T cells. The assay is described as follows: Soluble CD40L ELISA, transiently transfected HEK293T cells. It counts as cell-based, human. As for the experimental part: Soluble CD40L (sCD40L) constructs OT-001672, OT-001686, OT-001673, OT-001674, OT-001677, and OT-001684 were transiently transfected into HEK293T cells. Cells were treated with one of the following ligands 1 μM Shield-1, 50 μM TMP, 1 μM Bazedoxifene (BZD) or vehicle control.
The pg/mL levels of soluble CD40L were measured by ELISA (Table 14). Recombinant soluble CD40L was used as the standard in the experiments.

The test system of assay [2] is HEK293T cells. The experiment in a line: Surface expression of CD40L trimerization mutants, transfected HEK293T cells (FACS). The format is cell-based, human. As to conditions: transiently transfected HEK293T cells. On the procedure: Mutations were engineered within CD40L payload to reduce the binding affinity of CD40L payload for the CD40L endogenously expressed by cells. Constructs OT-002078, OT-002079, OT-002080, OT-002081, OT-002082 were generated with the CD40L trimerization mutants. HEK293T cells were transiently transfected with the constructs and CD40L expression was measured by FACS.

Assay [3] relates to Jurkat cells. The assay is described as follows: CD40L shedding ELISA of supernatant, Jurkat cells with or without CD40-Fc receptor. Also on record: CD40L levels in supernatant: unit not given here. The format is cell-based. As to conditions: 6 hours. As for the experimental part:
Sheddases e.g. ADAM10/17 present in the tumor microenvironment can cleave CD40L thereby preventing the successful activation of CD40 by CD40L. […] OT-001669 which has a deletion of amino acids 1-13 of CD40L was designed to reduce internalization and OT-001668 which has a deletion of amino acids 110-116 of CD40L was designed to remove the ADAM10/17 sites. Jurkat cells stably expressing the full length construct OT-001661, OT-001669, or OT-001668 were cultured for 6 hours with 1.25 μg/ml recombinant human (h) or mouse (m) CD40-Fc receptor or left untreated and tested using an ELISA assay (Table 15).

The test system of assay [4] is T cells (CD4 and CD8). The experiment in a line: Cleavage resistant CD40L expression and TMP regulation in T cells. The following applies: for CD40L expression (percentage of CD40L expressing T cells): day 4. The format is cell-based. On the procedure: T cells were transduced with OT-001668 and on day 4, the percentage of CD40L expressing T cells (within the both CD4 and CD8) subpopulations was calculated.
T cells were transduced with ecDHFR regulated construct OT-001671 that include a CD40L protein that was resistant to cleavage. On day 4 cells were treated with 10 μM TMP for 24 hours. […] In an independent experiment, T cells transduced with varying volumes of virus corresponding to OT-001671 were treated with increasing doses of TMP for 24 hours. In Table 41, 0.5 μL, 2 μL, and 10 μL indicate the different volumes of virus that were used.

[5] abbreviates: independent experiment with similar setup.

B1: OT-001677: Soluble CD40L (sCD40L) construct (protein)
chain: GSSLALSLTADQMVSALLDAEPPILYSEYDPTRPFSEASMMGLLTNLADRELVHMINWAKRVPGFVDLTLHDQVHLLECAWMEILMIGLVWRSMEHPGKLLFAPNLLLDRDQGKCVEGGVEIFDMLLATSSRFRMMNLQGEEFVCLKSIILLNSGVYTFLSSTLKSLEEKDHIHRVLDKITDTLIHLMAKAGLTLQQQHQRLAQLLLILSHIRHMSNKRMEHLYSMKCKNVVPLSDLLLEMLDAHRLGSMHMQKGDQNPQIAAHVISEASSKTTSVLQWAEKGYYTMSNNLVTLENGKQLTVKRQGLYYIYAQVTFCSNREASSQAPFIASLCLKSPGRFERILLRAANTHSSAKPCGQQSIHLGGVFELQPGASVFVNVTDPSQVSHGTGFTSFGLLKL
As for B1, in assay [1] (setting [5]), the Stabilization Ratio is listed as 7.2 and the “basal expression in the absence of ligand” value was “very low basal expression”.

B2: OT-001684: Soluble CD40L (sCD40L) construct (protein)
chain: GSSLALSLTADQMVSALLDAEPPILYSEYDPTRPFSEASMMGLLTNLADRELVHMINWAKRVPGFVDLALHDQVHLLECAWMEILMIGLVWRSMEHPGKLLFAPNLLLDRNQGKCVEGGVEIFDMLLATSSRFRMMNLQGEEFVCLKSIILLNSGVYTFLSSTLKSLEEKDHIHRVLDKITDTLIHLMAKAGLTLQQQHQRLAQLLLILSHIRHMSSKRMEHLYSMKCKNVVPLSDLLLEMLDAHRLGSMHMQKGDQNPQIAAHVISEASSKTTSVLQWAEKGYYTMSNNLVTLENGKQLTVKRQGLYYIYAQVTFCSNREASSQAPFIASLCLKSPGRFERILLRAANTHSSAKPCGQQSIHLGGVFELQPGASVFVNVTDPSQVSHGTGFTSFGLLKL
Consider B2, for which the “Stabilization Ratio” value in assay [1] (soluble CD40L +Ligand versus Vehicle, HEK293T cells) worked out at 1.0.

B3: OT-002078: construct with CD40L trimerization mutant (protein)
chain: MGGSGGGSGGGSGMIETYNQTSPRSAATGLPISMKIFMYLLTVFLITQMIGSALFAVYLHRRLDKIEDERNLHEDFVFMKTIQRCNTGERSLSLLNCEEIKSQFEGFVKDIMLNKEETKKENSFEMQKGDQNPQIAAHVISEASSKTTSVLQWAEKGYYTMSNNLVTLENGKQLTVKRQGLYYIYAQVTFCSNREASSQAPFIASLCLKSPGRFERILLRAANTHSSAKPCGQQSIGLFGVFELQPGASVFVNVTDPSQVSHGTGFTSFGLLKL
In the case of B3, the “% CD40L positive” value in assay [2] was determined as 49.7%.

B4: OT-002079: construct with CD40L trimerization mutant (protein)
chain: MGGSGGGSGGGSGMIETYNQTSPRSAATGLPISMKIFMYLLTVFLITQMIGSALFAVYLHRRLDKIEDERNLHEDFVFMKTIQRCNTGERSLSLLNCEEIKSQFEGFVKDIMLNKEETKKENSFEMQKGDQNPQIAAHVISEASSKTTSVLQWAEKGYYTMSNNLVTLENGKQLTVKRQGLYYIYAQVTFCSNREASSQAPFIASLCLKSPGRFERILLRAANTHSSAKPCGQQSIGLHGVFELQPGASVFVNVTDPSQVSHGTGFTSFGLLKL
For B4, in assay [2], the “% CD40L positive” value amounted to 64.7%.

B5: OT-002080: construct with CD40L trimerization mutant (protein)
chain: MGGSGGGSGGGSGMIETYNQTSPRSAATGLPISMKIFMYLLTVFLITQMIGSALFAVYLHRRLDKIEDERNLHEDFVFMKTIQRCNTGERSLSLLNCEEIKSQFEGFVKDIMLNKEETKKENSFEMQKGDQNPQIAAHVISEASSKTTSVLQWAEKGYYTMSNNLVTLENGKQLTVKRQGLYYIGAQVTFCSNREASSQAPFIASLCLKSPGRFERILLRAANTHSSAKPCGQQSIHLFGVFELQPGASVFVNVTDPSQVSHGTGFTSFGLLKL
Take B5: the “% CD40L positive” value in assay [2] amounted to 0.11%.

B6: OT-002082: construct with CD40L trimerization mutant (protein)
chain: MGGSGGGSGGGSGMIETYNQTSPRSAATGLPISMKIFMYLLTVFLITQMIGSALFAVYLHRRLDKIEDERNLHEDFVFMKTIQRCNTGERSLSLLNCEEIKSQFEGFVKDIMLNKEETKKENSFEMQKGDQNPQIAAGVISEASSKTTSVLQWAEKGYYTMSNNLVTLENGKQLTVKRQGLYYIYAQVTFCSNREASSQAPFIASLCLKSPGRFERILLRAANTHSSAKPCGQQSIHLGFVFELQPGASVFVNVTDPSQVSHGTGFTSFGLLKL
Turning to B6, in assay [2], the “% CD40L positive” value was 0.028%.

B7: OT-001669: CD40L construct with deletion of amino acids 1-13 of CD40L, designed to reduce internalization (protein)
chain: MHATGLPISMKIFMYLLTVFLITQMIGSALFAVYLHRRLDKIEDERNLHEDFVFMKTIQRCNTGERSLSLLNCEEIKSQFEGFVKDIMLNKEETKKENSFEMQKGDQNPQIAAHVISEASSKTTSVLQWAEKGYYTMSNNLVTLENGKQLTVKRQGLYYIYAQVTFCSNREASSQAPFIASLCLKSPGRFERILLRAANTHSSAKPCGQQSIHLGGVFELQPGASVFVNVTDPSQVSHGTGFTSFGLLKL
As for B7, the “CD40L levels in supernatant” value turned out to be 8444.30 in assay [3] (1.25 μg/ml hCD40-Fc), 4335.76 in assay [3] (1.25 μg/ml mCD40-Fc) and 2137.69 in assay [3] (Untreated). Also, in assay [3] (1.25 μg/ml recombinant human CD40-Fc), the “shedding of CD40L” value is “enhance the shedding”.

B8: OT-001668: cleavage resistant CD40L construct, deletion of amino acids 110-116 of CD40L to remove the ADAM10/17 sites (protein)
chain: MHMIETYNQTSPRSAATGLPISMKIFMYLLTVFLITQMIGSALFAVYLHRRLDKIEDERNLHEDFVFMKTIQRCNTGERSLSLLNCEEIKSQFEGFVKDIMLNKEETKKENDQNPQIAAHVISEASSKTTSVLQWAEKGYYTMSNNLVTLENGKQLTVKRQGLYYIYAQVTFCSNREASSQAPFIASLCLKSPGRFERILLRAANTHSSAKPCGQQSIHLGGVFELQPGASVFVNVTDPSQVSHGTGFTSFGLLKL
On to B8, for which the “CD40L levels in supernatant” value in assay [3] (1.25 μg/ml hCD40-Fc), in assay [3] (1.25 μg/ml mCD40-Fc) and in assay [3] (Untreated) was 10 throughout. Moreover, the “shedding of CD40L” value in assay [3] (untreated or with human or mouse CD40-Fc) was “no shedding”. Moreover, the “CD40L expression (percentage of CD40L expressing T cells)” value is 95.5% in assay [4] (CD4+) and 86.7% in assay [4] (CD8+). Besides, in assay [4] (T cells, day 4, CD4 and CD8 subpopulations), the “expression of CD40L” value is “High expression of CD40L”.
